The text below walks through data of patent EP4800033A1, “HUMANIZED ANTI-CKAP4 ANTIBODY OR ANTIGEN-BINDING FRAGMENT THEREOF” (The University of Osaka, priority 2023, dated 2025).

One series concerns S2-CP8 cells. Description: Combination therapy assay, S2-CP8 xenograft tumors. The format is in vivo, mice. Particulars: single agent. The protocol:
Hv1Lt1 antibody or control IgG (280 µg/dose) was intraperitoneally administered twice a week. Gemcitabine (100 µg/dose, once weekly) or nab-PTX (10 mg/kg, twice weekly) was intraperitoneally administered. While lenvatinib (1 mg/kg) or a 0.5% (wt/vol) methylcellulose 400 solution was orally administered once a day, 6 days per week, tumor formation was continued for an additional 21 days, after which the mice were euthanized. The volume and weight of the excised tumors were measured.

The next series concerns HeLa S3 cells. Description: Propidium iodide nuclear staining / apoptosis. It is filed as cell-based, human.
The target in series [1] is T1, human CKAP4 extracellular region (465-602 amino acids) (human, UniProt Q07065 465-602).
T1 construct: also called extracellular region of CKAP4; extracellular domain of CKAP4
T1 sequence: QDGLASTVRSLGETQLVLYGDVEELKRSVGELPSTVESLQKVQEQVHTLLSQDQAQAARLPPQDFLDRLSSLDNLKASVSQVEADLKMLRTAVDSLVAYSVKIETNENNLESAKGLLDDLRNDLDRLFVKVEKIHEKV
The experiment in a line: SPR (Biacore T200, 25 C), antibody captured on anti-human IgG CM5 chip, CKAP4 465-602 as analyte, 1:1 Langmuir fit. Background: SPR reads the build-up and loss of mass on a sensor chip optically.

In series [2] the target is T2, CKAP4 in lysates of mouse lung cancer cells Lewis Lung Carcinoma (LLC) (mouse, UniProt Q8BMK4 1-575).
T2 construct: also called mouse CKAP4; endogenous CKAP4 (mouse tissues)
T2 sequence (looked up): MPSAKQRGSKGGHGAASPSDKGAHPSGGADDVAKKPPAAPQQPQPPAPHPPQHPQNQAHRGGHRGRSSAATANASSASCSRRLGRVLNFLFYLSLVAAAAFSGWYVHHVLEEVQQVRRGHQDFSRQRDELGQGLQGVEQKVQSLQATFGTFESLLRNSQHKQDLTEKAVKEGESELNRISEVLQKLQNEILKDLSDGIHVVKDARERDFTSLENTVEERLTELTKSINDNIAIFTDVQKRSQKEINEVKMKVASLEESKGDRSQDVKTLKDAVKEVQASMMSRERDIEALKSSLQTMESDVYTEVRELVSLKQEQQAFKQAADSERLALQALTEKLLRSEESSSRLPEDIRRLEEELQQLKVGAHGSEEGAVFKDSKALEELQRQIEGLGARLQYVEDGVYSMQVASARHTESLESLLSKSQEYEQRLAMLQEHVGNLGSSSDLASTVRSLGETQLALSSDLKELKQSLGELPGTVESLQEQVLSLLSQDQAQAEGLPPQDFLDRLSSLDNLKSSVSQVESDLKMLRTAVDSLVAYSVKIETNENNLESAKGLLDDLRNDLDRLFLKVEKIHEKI
Description: blot of LLC cell lysate.

Series [3] has as its target T1, human CKAP4 extracellular region …. The experiment in a line: SPR (Biacore T200, 25 C), antibody captured on anti-mouse IgG CM5 chip, CKAP4 465-602 as analyte, 1:1 Langmuir fit.

Take `Nc1ccn([C@@H]2O[C@H](CO)[C@@H](O)C2(F)F)c(=O)n1` [gemcitabine]: in the series on S2-CP8 cells, the “antitumor effects in vivo as single agents” value is “antitumor effects”.
In the case of `CN[C@@H]1C[C@H]2O[C@@](C)([C@@H]1OC)n1c3ccccc3c3c4c(c5c6ccccc6n2c5c31)C(=O)NC4` [staurosporine], the “nuclear staining with propidium iodide” value with HeLa S3 cells was “strongly stained”.

B1: Humanized anti-CKAP4 antibody Hv1Lt1 (antibody, human IgG1, V domains shown)
VH: QVQLVQSGAEVKKPGASVKVSCKASGFTFTSYWMHWVRQAPGQGLEWIGNINPSNGGTNYNAKFKSRVTMTRDTSTSTVYMELSSLRSEDTAVYYCARWVSFSYRGAMDYWGQGTLVTVSS
VL: EIVLTQSPDFQSVTPKEKVTITCRASRAIRNNLHWYQQKPDQSPKLLIKYVSQSISGVPSRFSGSGSGTDFTLTINSLEAEDAATYYCQQSDSWPYTFGQGTKLEIK
notes: also called HvlLtl; Humanized antibody Hv1Lt1
Usually Kd stands for the equilibrium constant for the complex coming apart. As usually defined, the koff is the rate constant with which the complex falls apart. The kon is the second-order rate constant of association. Take B1: in series [1], the equilibrium dissociation constant (Kd) was 0.761 nM, the koff was 1.14e-05 s⁻¹ and the kon is 15000 M⁻¹ s⁻¹.

B2: Humanized anti-CKAP4 antibody Hv2Lt1 (antibody, human IgG1, V domains shown)
VH: QVQLVQSGAEVKKPGASVKVSCKASGYTFTSYWMHWVRQAPGQGLEWMGIINPSNGGTSYAQKFQGRVTMTRDTSTSTVYMELSSLRSEDTAVYYCARWVSFSYRGAMDYWGQGTLVTVSS
VL: EIVLTQSPDFQSVTPKEKVTITCRASRAIRNNLHWYQQKPDQSPKLLIKYVSQSISGVPSRFSGSGSGTDFTLTINSLEAEDAATYYCQQSDSWPYTFGQGTKLEIK
notes: also called Hv2Ltl; Humanized antibody Hv2Ltl
In series [1], B2 yielded a Kd of 0.0449 nM, an off-rate constant (koff) of 1.7e-06 s⁻¹ and an on-rate (kon) of 37900 M⁻¹ s⁻¹. Further, the binding result in series [2] is “binds”.

B3: Mouse anti-CKAP4 antibody 3F11-2B10 (antibody, V domains shown)
VH: VQLQQQPGTELVKPGASVKLSCKASGFTFTSYWMHWVKQRPGQGLEWIGNINPSNGGTNYNAKFKSKATLTVDKSSSTAYMQLSSLTSEDSAVYYCARWVSFSYRGAMDYWGQGTSVTVSS
VL: DIVLTQSPAILSVTPGDGVSLSCRASRAIRNNLHWFQQKSHESPRLLIKYVSQSISGIPSRFSGSGSGTDFTLSVDSVETEDFGVYFCQQSDSWPYTFGGGTKLEIK
notes: Mouse monoclonal antibody; also called Mouse antibody 3F11-2B10; original mouse anti-CKAP4 antibody
Consider B3, for which, in series [3], the Kd turned out to be 14.5 nM, the off-rate constant (koff) is 0.0018 s⁻¹ and the on-rate (kon) stood at 125000 M⁻¹ s⁻¹.
